Measured values from the nanobody polyreactivity screen of Harvey et al. (2022).

Assay: yeast display, Sf9 membrane polyspecificity reagent, FACS + sequencing; frameworks hold sequencing errors
Summary of the method: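 In a synthetic yeast display library (Saccharomyces cerevisiae BJ5465), nanobody expression was induced with galactose for 36–48 hours. FACS gates were set low and high (top ~1%) using anti-HA fluorescence for expression and streptavidin fluorescence for binding of the Sf9 membrane reagent. Each polyreactivity label is drawn from the gate of origin.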

Row | Sequence | polyreactivity (PSR sort gate)
1 | QDQLVESGGGLVQAGGSLRLICAASGRTFYQYVMGWYRQAPGKERELVAAIRSGGNTYYADSVKGRFTISRDNAKNTVYLQMNSLKPEDTAVYYCAVQRGYYRYRLGRYGYDYWGQGTQVTVSS | high polyreactivity
2 | QDQLVESGGGLVQAGGSLRLICAASGSIFEPYVMGWYRQAPGKERELVAAIRQTGGSTYYADSVKGRFTISRDNAKNTVYLQMNSLKPEDTAVYYCNAEQNPSGLYDYRGVEGEMGYWGQGTQVTVSS | low polyreactivity
3 | QDQLVESGGGLVQAGGSLRLICAASGSTLPRYTMGWYRQAPGKERELVAAISFSGSSTYYADSVKGRFTISRDNAKNTVYLQMNSLKPEDTAVYYCRYGYNYWGQGTQVTVSS | high polyreactivity
4 | QDQLVESGGGLVQAGGSLRLRCADYGSTFYYYAMGWYRQAPGKERELVAVITRGGGTYYADSVKGRFTISRDNAKNTVYLQMNSLKPEDTAVYYCNARQRSSTRKGYNYWGQGTEVTVSS | high polyreactivity
5 | QDQLVESGGGLVQAGGSLRLSCAASAFIFSSYAMGWYRQAPGKERELVAAITVRAGRTYYADSVKGRFTISRDNAKYTVYLEMNSLKPEDSAVYYCAADSGLWGYYYWGQGTQVTVSS | high polyreactivity
6 | QDQLVESGGGLVQAGGSLRLSCAASGFIFALYAMGWYRQAPGKERELVAAINWSGGRTYYADSVKGRFTISRDNAKNTVYLQMNSLKPEDTAVYYCNRRAFSPYAANYYYWGQGTQVTVSS | high polyreactivity
7 | QDQLVESGGGLVQAGGSLRLSCAASGFIFPIYAMGWYRQAPGKERELVAGISGSGTSTYYADSVKGRFTISRDNAKNTVYFLMNSLKPEDTAVYYCNILWRGAARTRWDRGYWGLGTQVTVSS | high polyreactivity
8 | QDQLVESGGGLVQAGGSLRLSCAASGFIFWFYAMGWYRQAPGKERELVASISARGARTYYADSVKGRFTISRDNAKNTVYLQMNSLKPEDTAVYYCATTSPVWWRADDYWGQGTQVTVSS | high polyreactivity
9 | QDQLVESGGGLVQAGGSLRLSCAASGFILKPNAMGWYRQAPGKERELVAAISWSSGSPDYADSVKGRFTISRDNAKNTVYLQMNSLKPEDTAVYYCAADYFVYPDDWYDYWGQGTQVTVSS | low polyreactivity
10 | QDQLVESGGGLVQAGGSLRLSCAASGFTFFPYAMGWYRQAPGKERELVAGINDGGSTNYADSVKGRFTISRDNAKNTVYLQLNSLKPEDTAVYYCNADTPLSGGSSMGYWGQGTQVTVSS | low polyreactivity
11 | QDQLVESGGGLVQAGGSLRLSCAASGFTFGSYAMGWYRQAPGKERELVAAISSNGGNTYYADSVKGRFTISRDNAKNTVYLQMNSLKPEDTAVYYCAARYPSGTRKWYGYWGQGTQVTVSS | high polyreactivity
12 | QDQLVESGGGLVQAGGSLRLSCAASGFTFGYYVMGWYRQAPGKERELVAAITQRGGSTYADSVKGRFTISRDNAKNTVYLQMNSLKPEDTAVYYCAAPIYNGYASWQVYYWGQGTQVTVSS | high polyreactivity
13 | QDQLVESGGGLVQAGGSLRLSCAASGFTFQDYAMGWYRPAPGKERELVAAISTSDGNTYYADSVKGRFTISRDNAKNTVYLQMNSLKPEDTAVYYCAAQRNYGWVKFYYWGQGTQVTVSS | high polyreactivity
14 | QDQLVESGGGLVQAGGSLRLSCAASGFTFSHNVMGWSRQAPGKERELVAAITWSGDGTYYADSVKGRFTISRDNAKKSVYFQMNSLKTEDTAVYYCNARYGKEYDYWGQGTQVTVSS | low polyreactivity
15 | QDQLVESGGGLVQAGGSLRLSCAASGFTFYFYAMGWYRQAPGKERELVDAISRSGSRTYYADSVKGRFTISRDNAKNSVYLQMNILKPEDTAVYYCARVRPRGLYFVLHYDYWGQGTQVTVSS | high polyreactivity
16 | QDQLVESGGGLVQAGGSLRLSCAASGFTFYYNAMVLYRQAPGKERELVASISSNGTSTYYADSVKGRFTISLDNEKNTVYLHMNILKPEDTAVHYCNVDIFDPRTYVYWGQGTQVTVSS | low polyreactivity

Row | Sequence | polyreactivity (PSR sort gate)
17 | QDQLVESGGGLVQAGGSLRLSCAASGFTIQAYAMGWYRQAPGKERELVATISKSGGRTYYADSVKGRFTISRDNAKNTVYLQMNSLKPEDTAVYYCNKRVSGRHYDYWGQGTQVTVSS | high polyreactivity
18 | QDQLVESGGGLVQAGGSLRLSCAASGGIFLGNAMGWYRQAPGKERELVAAISFSGGSTYYADSVKGRFTISRDNAKNTVYLQMNSLKPEDTAVYYCAAAWNRGKYNYYYWGQGTQVTVSS | high polyreactivity
19 | QDQLVESGGGLVQAGGSLRLSCAASGGNFYGNAMGWYRQAPGKERELVATISRRGGSTYYADSVKGRFTISRDNAKNSVYLQMNSLKPEDTAVYYCAADARSSYYTKRFDYWGQGTQVTVSS | high polyreactivity
20 | QDQLVESGGGLVQAGGSLRLSCAASGGTFGGYAMGWYRQAPGKERELVAAITYSGGSTYYADSVKGRFTISRDNAKNTVYLQMNSLKPEDTAVYYCAQYHYRYYYWGQGTQVTVSS | high polyreactivity
21 | QDQLVESGGGLVQAGGSLRLSCAASGIIFEYYAMGWYRQAPGKEREFVASITSSDGSTYYADSVKGRFTISRDNAKNTVYLQMNILKPEDTAVYYCAAAGDYVVPISSTAGFGGDYWGQGTQVTVSS | low polyreactivity
22 | QDQLVESGGGLVQAGGSLRLSCAASGIIFYGYGMGWYRPAPGKERELVAAISRSGGSTYYADSVKGRFTISRDNAKNTVYLQMNSLKPEDTAVYSCAASGVTYDYWGQGTQVTVSS | high polyreactivity
23 | QDQLVESGGGLVQAGGSLRLSCAASGINFPLYAMGWYRQAAGKERELVAAISSSDGDTFYADSVKWRFTISRDNAKNTVYLQMNSLKPYDTAVYYCAAVAPTELLYTYGYYPYYYWGQGTQVTVSS | high polyreactivity
24 | QDQLVESGGGLVQAGGSLRLSCAASGITFAGYARGWYRQAPGKERELVAAITGRGGSTYYADSVKGRFTISRDNAKNTVYLQMNSLKPEDTAVYYCAARSSKTGTGVRFGYWGQGTQVTVSS | high polyreactivity
25 | QDQLVESGGGLVQAGGSLRLSCAASGITFAYYAMGWYRQAPGQERDFVAAINGGGSTNYADSVKGRFTISRDNAKNTVYLQMKSLKAEDTAVYYCNARRAYRAWDYPYDYWGQGTQVTVSS | high polyreactivity
26 | QDQLVESGGGLVQAGGSLRLSCAASGITFPGYPMGWYRHAPGKEREFVAAISWGGVSTYYADSVMGRFTISRDNAKNTVYLQMNSLKPEDTAVYYCNAEYPWSVVGYDYWGQGTQVTVSS | low polyreactivity
27 | QDQLVESGGGLVQAGGSLRLSCAASGITLQLNAMGWYIQAPGKEREFVARISISGGRTYYADSVKGRFTISRDNAKNTVYLQMNSLKPEDTAVYYCAARVGRGYREYGYWGQGTQVTVSS | high polyreactivity
28 | QDQLVESGGGLVQAGGSLRLSCAASGLTFSLYAMGWYRQAPGKERELVAAISWTGGSTYYADSVKGRFTISRDTPKNTVYLQMNSLKPEDTAVYYCNARYTLFARYGYDYWGQGTQVTVSS | low polyreactivity
29 | QDQLVESGGGLVQAGGSLRLSCAASGLTLYKNGLGWYRQAHGKEMELVAVISRSGGRTYYADSVKGRFTISRDNAKYTVYLQMNSLKPEDTAVYYCAARQYGPSYTYYYWGQGTQVTVSS | high polyreactivity
30 | QDQLVESGGGLVQAGGSLRLSCAASGNIFTSNAMGWYRQAPGKERELVAANTSGGSTYYADSVKGRFTISRDNAKNTVYLQMYSLKPEDTAVYFCASLRRPHLRPYYYWGQGTQGTVSS | high polyreactivity
31 | QDQLVESGGGLVQAGGSLRLSCAASGRIFAGNARGWYRQAPGKERELVATITRGGSTNYADSVKRPFTISRDNAKNTVYLQMNSLNPEDTAVYYCNADIRRHGGYAHVYWGQGTQVTVSS | low polyreactivity
32 | QDQLVESGGGLVQAGGSLRLSCAASGRIFDIYAMGWYRQAPGKERELVAAITWRGGSTYYADSVKGRFTISRDTAKNTLYLQMNSLKPEDTAVYYCAVDFITPRGSYYWGQGTQVTVSS | low polyreactivity
